Here are results for ten molecules from publication PMC10598209 (Nature Communications, 2023).

Data set [1] addresses T1, RPA32C, RPA32(172−270) (human, UniProt P15927 172-270).
T1 construct: Used 15N-labelled or unlabelled in NMR; unlabelled in ITC; also called RPA32C domain; source: E. coli BL21(DE3), purified (IMAC, TEV cleavage, second IMAC, Superdex 75); not shown: His6, N-terminal, cleaved
Put plainly: NMR titration; 2D lineshape analysis (TITAN v1.6) of 1H-15N HSQC titrations of 50 μM 15N RSM with RPA32C (up to 16× excess) and dsDNA (up to 4× excess) and their competition; four titrations, 24 spectra, 16 residues fitted globally to a competitive binding model. The following applies: both partners purified.

The target in data set [2] is T1, RPA32C, RPA32(172−270). Put plainly: NMR titration; 1H-15N HSQC of 50 or 100 μM 15N-labelled protein (RECQ4 or RPA) with step-wise addition or an excess of the unlabelled partner; buffer and temperature in Supplementary Table 6. The following applies: both partners purified.
For data set [3], the target named is T2, sRSM, RECQ4(358-388) (Homo sapiens, UniProt O94761).
T2 chain: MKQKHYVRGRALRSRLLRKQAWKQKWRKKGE
Description: stopped-flow/CD/NMR/light scattering global fit; Kd,1: initial 1:1 complex; FA: 25 mM KPO4 pH 6.5, 70 mM KCl (or 500 mM NaCl), 25 C; ITC: same low-salt buffer, 30 C; NMR dsDNA: 50 mM NaPO4 pH 6.0, 150 mM NaCl, 298 K; NMR G4: 25 mM KPO4. The following applies: intramolecular parallel G4.

The target in data set [4] is T3, RSM, RECQ4(348-388) (Homo sapiens, UniProt O94761).
T3 chain: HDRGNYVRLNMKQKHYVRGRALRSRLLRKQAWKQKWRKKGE
Description: ITC; 70 mM KCl, pH 6.5, 30 C; FA: 25 mM KPO4 pH 6.5, 70 mM KCl (or 500 mM NaCl), 25 C; ITC: same low-salt buffer, 30 C; NMR dsDNA: 50 mM NaPO4 pH 6.0, 150 mM NaCl, 298 K; NMR G4: 25 mM KPO4. The following applies: protein: recombinant, tags: N-terminal His6-TEV construct (pET-M11). (In general: Isothermal titration calorimetry measures the heat released or taken up as one component is titrated into another.)

Data set [5] concerns the target T2, sRSM, RECQ4(358-388). Description: EMSA; FA: 25 mM KPO4 pH 6.5, 70 mM KCl (or 500 mM NaCl), 25 C; ITC: same low-salt buffer, 30 C; NMR dsDNA: 50 mM NaPO4 pH 6.0, 150 mM NaCl, 298 K; NMR G4: 25 mM KPO4. The following applies: label: 5' FITC on strand 1; blunt. For orientation: A gel shift assay detects complexes by their altered migration in electrophoresis.
Data set [6] deals with T3, RSM, RECQ4(348-388). Described as above. The following applies: protein: recombinant; tags: N-terminal His6-TEV construct (pET-M11); label: 5' FITC on strand 1; blunt.
For data set [7], the target named is T4, RECQ4(322-400) (Homo sapiens, UniProt O94761 322-400).
T4 sequence: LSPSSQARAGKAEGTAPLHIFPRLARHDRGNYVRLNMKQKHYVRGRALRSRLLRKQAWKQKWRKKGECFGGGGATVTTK
Description: EMSA; profile indistinguishable from RSM and sRSM; FA: 25 mM KPO4 pH 6.5, 70 mM KCl (or 500 mM NaCl), 25 C; ITC: same low-salt buffer, 30 C; NMR dsDNA: 50 mM NaPO4 pH 6.0, 150 mM NaCl, 298 K; NMR G4: 25 mM KPO4. The following applies: protein: recombinant; tags: N-terminal His6-TEV construct (pET-M11); label: 5' FITC on strand 1; blunt.

Data set [8] concerns the target T3, RSM, RECQ4(348-388). Description: fluorescence anisotropy; low ionic strength (70 mM KCl); FA: 25 mM KPO4 pH 6.5, 70 mM KCl (or 500 mM NaCl), 25 C; ITC: same low-salt buffer, 30 C; NMR dsDNA: 50 mM NaPO4 pH 6.0, 150 mM NaCl, 298 K; NMR G4: 25 mM KPO4. The following applies: protein: recombinant, tags: N-terminal His6-TEV construct (pET-M11). For orientation: In fluorescence polarisation assays a small probe gives low polarisation when free and higher when bound to something large.

The target of data set [9] is T3, RSM, RECQ4(348-388). Description: NMR 2D lineshape analysis (competition with RPA32C); 150 mM NaCl, pH 6.0, 298 K; kon 1.5e10 M-1 s-1; FA: 25 mM KPO4 pH 6.5, 70 mM KCl (or 500 mM NaCl), 25 C; ITC: same low-salt buffer, 30 C; NMR dsDNA: 50 mM NaPO4 pH 6.0, 150 mM NaCl, 298 K; NMR G4: 25 mM KPO4. The following applies: protein: recombinant; tags: N-terminal His6-TEV construct (pET-M11); label: 5' FITC on strand 1 (FA); blunt.

Data set [10] addresses T4, RECQ4(322-400). Description: NMR; only RSM residues affected; FA: 25 mM KPO4 pH 6.5, 70 mM KCl (or 500 mM NaCl), 25 C; ITC: same low-salt buffer, 30 C; NMR dsDNA: 50 mM NaPO4 pH 6.0, 150 mM NaCl, 298 K; NMR G4: 25 mM KPO4. The following applies: protein: recombinant; tags: N-terminal His6-TEV construct (pET-M11); label: 5' FITC on strand 1 (FA); blunt.
The target in data set [11] is T3, RSM, RECQ4(348-388). Description: fluorescence anisotropy; low ionic strength (70 mM KCl); submicromolar; FA: 25 mM KPO4 pH 6.5, 70 mM KCl (or 500 mM NaCl), 25 C; ITC: same low-salt buffer, 30 C; NMR dsDNA: 50 mM NaPO4 pH 6.0, 150 mM NaCl, 298 K; NMR G4: 25 mM KPO4. The following applies: protein: recombinant, tags: N-terminal His6-TEV construct (pET-M11).
Data set [12] deals with T3, RSM, RECQ4(348-388). Put plainly: NMR; 300 mM NaCl, pH 6.0, 288 K; FA: 25 mM KPO4 pH 6.5, 70 mM KCl (or 500 mM NaCl), 25 C; ITC: same low-salt buffer, 30 C; NMR dsDNA: 50 mM NaPO4 pH 6.0, 150 mM NaCl, 298 K; NMR G4: 25 mM KPO4. The following applies: protein: recombinant; tags: N-terminal His6-TEV construct (pET-M11); 10 bp duplex with unpaired TTTT arms (3' of strand 1, 5' of strand 2).

The target of a further data set is T5, RSM 5E mutant (Homo sapiens, UniProt O94761 348-388, R375E;K376E;K380E;K382E;R384E).
T5 chain: T3 chain with R28E, K29E, K33E, K35E, R37E
Put plainly: NMR; binding not detectable, no droplets; FA: 25 mM KPO4 pH 6.5, 70 mM KCl (or 500 mM NaCl), 25 C; ITC: same low-salt buffer, 30 C; NMR dsDNA: 50 mM NaPO4 pH 6.0, 150 mM NaCl, 298 K; NMR G4: 25 mM KPO4. The following applies: protein: recombinant; tags: N-terminal His6-TEV construct (pET-M11); label: 5' FITC (FA); intramolecular hybrid G4.

The target of data set [13] is T2, sRSM, RECQ4(358-388). Put plainly: NMR; largest CSP at 5'-end G-tetrad; FA: 25 mM KPO4 pH 6.5, 70 mM KCl (or 500 mM NaCl), 25 C; ITC: same low-salt buffer, 30 C; NMR dsDNA: 50 mM NaPO4 pH 6.0, 150 mM NaCl, 298 K; NMR G4: 25 mM KPO4. The following applies: label: 5' FITC (FA); intramolecular hybrid G4.
Setting [14] is: label: 5' FITC (FA), intramolecular hybrid G4.

Substitutions are numbered along the chain they refer to. Numbers in names are those of the source. Some results are limits rather than exact numbers.

T1 sequence (P15927 172-270): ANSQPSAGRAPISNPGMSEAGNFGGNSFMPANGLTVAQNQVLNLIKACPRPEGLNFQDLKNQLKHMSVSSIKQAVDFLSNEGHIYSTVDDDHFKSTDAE

B1: RECQ4-specific motif (RSM), RECQ4(348–388) (domain or fragment, human, UniProt O94761 348-388, looked up)
chain: T3 chain
notes: H. sapiens RECQ4 residues 348-388 (RSM), cloned in pET-M11; Used 15N-labelled or unlabelled in NMR; unlabelled in ITC; source: E. coli BL21(DE3), purified (IMAC, TEV cleavage, Mono S, Superdex 75); not shown: His6, N-terminal, cleaved
In the case of B1, in the data set with RPA32C, RPA32(172−270) [1], the Kd (as a rule, the concentration at which binding is half-saturated) is 117 µM and the kon – broadly, a measure of how fast the partners come together – turned out to be 2.4e+08 M⁻¹ s⁻¹.

B2: RSM W379A/W383A (domain or fragment, human, UniProt O94761 348-388, looked up)
chain: T3 chain with W32A, W36A
notes: H. sapiens RECQ4 residues 348-388 with W379A and W383A, made from the RECQ4(348–388) expression vector; also called RSM double tryptophan mutant; source: E. coli BL21(DE3), purified; not shown: His6, N-terminal, cleaved
As to B2, the binding result with RPA32C, RPA32(172−270) [2] is “binds”. Take TTGGGTGGGTGGGTGGGT (structured_DNA) [T95-2T parallel G4]: the Kd with sRSM, RECQ4(358-388) [3] came out at 3.1 ± 0.2 µM; with RSM, RECQ4(348-388) [4] (intramolecular parallel G4) it was 0.2 ± 0.08 µM.

B3: ds49 (dsDNA)
DNA 1: AGCTACCATGCCTGCACGAATTAAGCAATTCGTAATCATGGTCATAGCT
DNA 2: AGCTATGACCATGATTACGAATTGCTTAATTCGTGCAGGCATGGTAGCT
Take B3: the binding result with sRSM, RECQ4(358-388) [5] is “binds”; in the data set with RSM, RECQ4(348-388) [6], “binds”; in the data set with RECQ4(322-400) [7] it was “binds”.

B4: RECQ4(322–400) (domain or fragment, human, UniProt O94761 322-400, looked up)
chain: T4 sequence
notes: Used 15N-labelled or unlabelled in NMR; source: E. coli BL21(DE3), purified (IMAC, TEV cleavage, Mono S, Superdex 75); not shown: His6, N-terminal, cleaved
As to B4, in the data set with RPA32C, RPA32(172−270) [2], the binding result is given as “binds”. In the case of CAGCGCTCGG (ssDNA) [ss10], the Kd with RSM, RECQ4(348-388) [8] (label: 5' FITC (FA)) was approximately 1 µM.

B5: ds10 (dsDNA)
DNA 1: CAGCGCTCGG
DNA 2: CCGAGCGCTG
As for B5, the dissociation constant (Kd) with RSM, RECQ4(348-388) [8] (label: 5' FITC on strand 1 (FA), blunt) is approximately 1 µM; in the data set with RSM, RECQ4(348-388) [9] it was 6.3 ± 0.6 µM. For the same molecule, the binding result with RECQ4(322-400) [10] is given as “binds”. Take AGGGGGGAGGGAGGGTGG (structured_DNA) [CEB1 parallel G4]: the Kd with RSM, RECQ4(348-388) [11] (label: 5' FITC or Cy3 (FA, EMSA), parallel G4) was less than 1 µM.

B6: splayed-arm Y14 (dsDNA)
DNA 1: CAGCGCTCGGTTTT
DNA 2: TTTTCCGAGCGCTG
B6: the binding result with RSM, RECQ4(348-388) [12] is recorded as “binds”. As to TTGGGTTAGGGTTAGGGTTAGGGA (structured_DNA) [HT hybrid G4], the binding result is “no binding” with RSM 5E mutant and “binds” in the data set with sRSM, RECQ4(358-388) [13]. In addition, the dissociation constant Kd with RSM, RECQ4(348-388) [11] (setting [14]) was less than 1 µM; with RSM, RECQ4(348-388) [4] (setting [14]), 0.42 ± 0.14 µM.
